Here are results for 17 sequences from the DeepSol protein solubility set.

A short description of the series: soluble on expression in E. coli; label from the status in PepcDB or PDB records.
As to “VDLNALADLPLTYPEVGATATGRLPAGYNHLDVSTQIGTGRQRFEQAADAVMHWGMQRNAGLRVRASSETAVVSAVVLVGIAFLRAPCRVVYVIDEPDVRGFGYGTLPGHPVSGEERFAVRCDPMTSVVFAEVLSFSRPATWASKAAGPLGAVTQRFIAQRYLRAV”, the “soluble on expression in E. coli” value is on record as “not soluble”.
Take “MGSDKIHHHHHHATKTEQIPVNKTYAACPQNWIGVENKCFYFSEYPSNWTFAQAFCMAQEAQLARFDNQDELNFLMRYKANFDSWIGLHRESSEHPWKWTDNTEYNNTIPIRGEERFAYLNNNGISSTRIYSLRMWICSKL”: the “soluble on expression in E. coli” value is listed as “not soluble”.
Take “MGSDKIHHHHHHMGLSTSTKTFAERLEESKKDQFAKAAVAKAQDAQWEKRESARDELGNWQEWRDIAESIRQHTLKYLPHYLTEFSDNVAARGGHVFFAADAKEANDYVKRIVLEKNAKKIVKSKSMVTTEVDIDPMLVSLSDDMDILETDLAEFILQVADWDEPSHIVFPALHKNRDQIREIFAKKLGYEGDNNPVNLARCARDTMRKLFLKSEVGITGCNFAIANTGDINLSTNEGNADLTISIPKTQIVLMGMERIVPSIKEAEILDNMLARSAVGQKLTTYVTFAGQQADDESDGPEDFHVVIVDNGRSNAIGTAFEAVLQCIRCGACLNVCPVYRQIGGHAYGSIYPGPIGSVLSPVLGGYEQYGDLPYASTLCGACTETCPVKIPLHELLIEHRKVMEDDLSMHHDGSFVNFEMNTIGKGTSSPALFGMAINMAHTGLNMLPKAKEVSVEGSLFNYGAVRKAPALAKGWTDVRDLPIAPPHKEQFRQWYKKHKAGK”: the “soluble on expression in E. coli” value is “not soluble”.
On to “MTSSAMDNNEPKVLEMVYDATILPECSGMDPSIIDCINRHINMRIQRSYSSNIIAILDRFLMMNKDELNNTQCHIIKEFMTYEQMAIDYYGGYVNAILYQIRKRPNQHHTIDLFKRIKRTRYDTFKVNPVEFVKKVIGFVSILNKYKPIYSYVLYENVLYDELKCFIDYVETKYFQN”, for which the “soluble on expression in E. coli” value is “not soluble”.
For “GPLGSPEFISLTSIPSLREQQHPLIRQLADCIEEVWHQHLDLSPYHLPAELGYVEGRLEGEKLTIENRCYQTPQFRKMHLELAKVGNMLDILHCVMFPRPEYDLPMFGCDLVGGRGQISAAIADLSPVHLDRTLPESYNSALTSLNTLNFSQPRELPEWGNIFSDFCIFVRPSSPEEEAMFLGRVREFLQVHCQGAIAASPVSAEQKQQILAGQHNYCSKQQQNDKTRRVLEKAFGVDWAENYMTTVLFDLPE”, the “soluble on expression in E. coli” value was “soluble”.
Then “SYHLDTTAPPPTNLSTLPNNTLFHLWRPRAHILPAEGQIGDPCAHYTDPSTGLFHVGFLHDGDGIAGATTANLATYTDTSDNGSFLIQPGGKNDPVAVFDGAVIPVGVNNTPTLLYTSVSFLPIHWSIPYTRGSETQSLAVARDGGRRFDKLDQGPVIADHPFAVDVTAFRAPFVFRSARLDVLLSLDEEVARNETAVQQAVDGWTEKNAPWYVAVSGGVHGVGPAQFLYRQNGGNASEFQYWEYLGEWWQEATNSSWGDEGTWAGRWGFNFETGNVLFLTEEGHDPQTGEVFVTLGTEGSGLPIVPQVSSIHDMLWAAGEVGVGSEQEGAKVEFSPSMAGFLDWGFSAYAAAGKVLPASSAVSKTSGVEVDRYVSFVWLTGDQYEQADGFPTAQQGWTGSLLLPRELKVQTVENVVDNELVREEGVSWVVGESDNQTATLRTLGITIARETKAALLANGSVTAEEDRTLQTAAVVPFAQSPSSKFFVLTAQLEFPASARSSPLQSGFEILASELERTAIYYQFSNESLVVDRSQTSAAAPTNPGLDSFTESGKLRLFDVIENGQEQVETLDLTVVVDNAVVEVYANGRFALSTWARSWYDNSTQIRFFHNGEGEVQFRNVSVSEGLYNAWPER”, with “soluble”; and “MVPSNAESQSVVVIGAGIGGLTTAALLAQQGYRVKVYEQAAIVGGCASTFRRRGFIFDVGATQVAGLEPGGIHHRIFRQLQVDLPEATLCDPACAVFLPGEKQPINVWHDPERWQREREQQFPGSGRFWQLLQTLFQISWRFQGRDPVLPPRSMWDLGQLLGALRPDTLLTAPFVPLTVGDTLRLLGLGSDQRLKTFLDLQLKLYSQVGADETALLYAATALSVSQGPQGLWHLQGSMQTLGDRLVEALKNHGGELFCSQRVEQIHCGQGYVEGVTVRDVRSGEVRQEKAQQVVANLTVQNLLQALDQPLPGYQKRVTNLPSGSGAFVIYLGVKEDAIPPDCAPHLQFLYDHQGPIGENNSLFVSVSKPGDGRAPRGCRTVIASSFTDVAPWWNASREQYQALKESYTTTAISRLGEYFNLDESTIVHQESATPRTFDRYTARDQGIVGGVGQRLTTFGPFGFAPRTPIRNLWLVGDSVHPGEGTAGVSYSALTIARQICASGATNSLEHHHHHH”, with “not soluble”.
Turning to “MNSVGFYGKLAGRGDFVSRGLPNTFVEPWDAWLASGMRASQDELGAAWLDAYLTSPLWRFAIAPGLLGGEAVTGVVMPSIDRVGRYFPLTVACLLPANADLGGLVGGDDGWFEQVESLLLSTLEPEAEVEAFEQAVAQLPAPPCGPRIEQSLISGNLLRSEAVTPAQRLAALAQHACDGASHWWGRGSARISAGLMRYQGLPPAPAFGRFLTGEGEVIPLFPGIPG”, the “soluble on expression in E. coli” value is given as “soluble”.
In the case of “MGSDKIHHHHHHMSYTTNKQPQGYPYFVTSKLREDMIGELVAINDYSFIISNSNIKEINDVLYHIRQEEHNHYGMLLELLRKYDPMEMDAYLRVIAHTTLTPVKEYLTVNSGITDKLLLNYLREGAKGELEAIILYEQHLAEIPYSDIRETLQKIVYEEKEHLEELTLVLINYDKDKYGSIKK” it was “not soluble”; in that of “MTVKCKAEESLTCSCVDVGTIIDGSDCSVEVHQFYSTEADANAVLERLTKKARNTESDPCEIKSEIVAVENGVQLNASFTFSCQAEAMIFELANR”, “not soluble”; in that of “MSSAAADESDAVLENLIAKEILPQTGNWEGTEEFLNRIVQVLLKYIKDQNDRDQKILEFHHPDKMQMLMDLSIPEKPESLLKLVKSCEDVLRLGVRTGHPRFFNQISCGLDLVSMAGEWLTATANTNMFTYEIAPVFILMEKSVMARMWEAVGWDPEKADGIFAPGGAIANLYAMNAARHQLWPRSKHLGMKDIPTLCCFTSEDSHYSIKSASAVLGIGADYCFNIPTDKNGKMIPEALEAKIIECKKEGLTPFFACCTAGSTVYGAFDPLERVANICERHKLWFHVDAAWGGGMLLSPEHRYKLAGIERANSVTWNPHKLMGALLQCSACLFRQDGLLFQCNQMSADYLFQQDKPYDVSFDTGDKAIQCGRHNDVFKLWLMWKSKGMEGYRQQINKLMDLANYFTRRIKETEGFELIIENPEFLNICFWYVPSKIRNLEPAEMRARLEKIAPKIKAGMMQRGTTMVGYQPDKQRPNFFRMIISNQAITREDLDFLIKEIVDIGESLE”, “not soluble”.
In the case of “MAKAFEEQRRSPDLEALPFEDRIGLLVDREAAERDTRRLTTRLKIAALRQTACVEDVDLRTPRGIDRAVFAKLVEGRWIDRHENLLVTGATGLGKSWLACALGHKACRDNRSVLYHRVPRLFEALALARGDGRYARLLKSLGRAQLLILDDWGLSVLTAAERRDLLEILEDRHGRASTIVTRQLPVDTWHGAIGDPTVADAILDRLVHNAHRLQLTGESMRKRSAKTITLDGQPEHAAALEHHHHHH”, the “soluble on expression in E. coli” value is recorded as “not soluble”.
Then “MGHHHHHHSHMKGIMVQGTASDVGKSLICTALCRIFARRGYKVTPFKSQNMSNNSYITVEGLEIGRAQGIQAEAAMEEASVYMNPILLKPRNDREAEIVCFGQAVDTVSGVKYRDGFYKRGLEAIKQALATLSQSFDMVVIEGAGSPVEVNLNDRELVNMKVAELADVPVILVADIERGGVFASLYGTLELLQPNERKRVVGIIVNKFRGDPELFSSGVQWIEQHLGVPVLGVLPHLPGVRIEGEDSLSKGQVTSVLP”, with “not soluble”; and “MSVASNRDAVVTARRRFFGEGRSVDGMLAAPILRSWQRCAGQGLDASRSPLVEPPTARELREFQERHDRLGRLARPELNALQGDARLTGSVVILTDAAGVVLDMIGSDEFAGRAAQVALRPGVSWSEADTGTNAIGTALVERQPIAVHGAEHFFERHRILACAAAPLIDPRGVVAGALDMTGPAAIRHVHALGLMRLAAEQIEHRFFTEGFEHCTMLRLHTDRALLGTPREGVLAFADGVLVGANRHGLDLMNLDWPALDLARLETLLPGVRPSDQIQMLRGPRGTRLWGRLVDPLRRSPRAPAASMPAAVPAAPAGEVEPILDAEMMAQLSRTVRLVEAGIPVLLLGETGSGKDVFARRVHAESARRNKPFVPVNCAALPEGLIESELFGYEAGAFTGARRQGAPGLLRQADGGVLFLDEIGDMPLSLQSRLLRVLQDKQISPLGGGRPVPVDFALICATHQPLGTLLAAGAFRQDLYFRIAQYVVERPPVRHHPDRLALVRTLWRQLGGEDAGVQLSAEVERVLAAYNWPGNYRQLVGTLRALLVLGEPGHPVEVAALPAEITAAAGAVESQVSEMLPGTSLAEQTRSVLQAALDASGGNVSRAARRLGIDRSTYYRRLLKDKDRGR”, with “not soluble”.
Turning to “MGSDKIHHHHHHMKFTDIEYFDKLSELESFSKTAIFFNVSQPTISFAIQRLENEMKKTLINRNQSHGEISLTEAGKVFEKHAKKILQEVVAAHEEIDRMNQPTIEFGLPQIIGNYYLPKLVKHFVGNPFFQNVATNEAGSNLLLGALKNRRLDLAIISSVEPVKIEGLETIEIDRKKYSIVVNKDNPLAKQKKVSFEDLADEKFVSLKEGNVHPIAFRKLEETYNVYPKIIYETPDINILKKMIAEKTGIGFIVEIAVEKQDNLATLELSNEKVPEFIISFVYKKDLQIPGIKRIVEELRNNSVFDQDR”, the “soluble on expression in E. coli” value is listed as “not soluble”.
In the case of “MGSDKIHHHHHHMMKHRHPQLRFLGATDSVTGSRYLVEAAGKRILVDCGLFQGYKVLRDRNRIPFPVRPDSIDAILLTHAHLDHTGYVPALVRDGFNGPVYATEGTTELCTLLLPDSGHLQEEEAKYAYEHGSSRHSPPVPLYTAADAVRSLDSFREHGFDTPLELGGGIAATFLPAGHILGAAQIRLAVGQHSVHFTGDLGRTDDPLMFPPRGLGAADILVTESTYGNRKHSSLDPELQLGEIITRVAKKNGVIMIAAFAVGRAETLMLHLSRLRSKNAIPDIPVYLNSPMAIDASGMYQRHPDEHRLKQPEYEDMYKVAKMTRTVDDSKLLNLRGGPMVIISASGMLTGGRILHHIAEYGPDPKNAIILSGYQAGGTRGAALAAGVRQLRIYGEDVRIRAEVIQMESLSAHADSDGLIEWMRAAAREPRMTYITHGEPEASDALRIRIKRELGWRVRVPEYLEGISLEDPT” it was “not soluble”; in that of “MGSDKIHHHHHHMLDDIKKTLWATADKQRANMDAAEYKHIVLGLIFLKYISDTFAGRRAELTRRFADENDEYFLRECDDELLAEELEDRDYYREVNVFWVPETARWESLRSAAKQTDIGKRIDEALAEIEAENPKLKGILDKRYARSQLPDGKLGELVDLISTIGFGEDASHARDVLGQVYEYFLGQFASAEGKKGGQFYTPASIVKTLVAVLAPHHGKVYDPCCGSGGMFVQSEKFIEAHGGKLGDVSIYGQESNPTTWRLAAMNLAIRGIDYNLGREPADTFVRNQHPDLRADFVLANPPFNVSDWWHGSLEGDPRWVYGTPPQGNANYAWLQHMLYHLKPNGRAGIVLANGSMSSSQNSEGDIRRAMVDADVVEVMVALPGQLFFNTQIPACLWFLAKQKTTRKGEVLFIDARKLGSMISRVQTELTDEIIERIANTVAAWRGEAIDGVGEYADVPGYCRSVKLAEIAEHGHVLTPGRYVGAEKVEDDDEAFVEKMQKLTEMLGEQMAKGAELDQLIRQKLGGMGYEF”, “not soluble”.
